Our source for the binding result and Kd values is PMC6393308.

For data set [1], the target named is T1, HpSoj (Helicobacter pylori 26695, UniProt O25759 1-264).
T1 sequence: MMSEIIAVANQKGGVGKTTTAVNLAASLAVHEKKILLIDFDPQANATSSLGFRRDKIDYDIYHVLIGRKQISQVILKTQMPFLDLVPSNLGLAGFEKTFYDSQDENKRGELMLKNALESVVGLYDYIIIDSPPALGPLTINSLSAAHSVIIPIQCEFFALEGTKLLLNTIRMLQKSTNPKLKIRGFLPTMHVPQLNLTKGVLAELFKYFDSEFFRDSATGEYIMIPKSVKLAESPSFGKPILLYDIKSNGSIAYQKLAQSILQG
The experiment in a line: EMSA.

Data set [2] deals with T2, HpSoj K199/230E (Helicobacter pylori 26695, UniProt O25759 1-264, K199E;K230E).
T2 sequence: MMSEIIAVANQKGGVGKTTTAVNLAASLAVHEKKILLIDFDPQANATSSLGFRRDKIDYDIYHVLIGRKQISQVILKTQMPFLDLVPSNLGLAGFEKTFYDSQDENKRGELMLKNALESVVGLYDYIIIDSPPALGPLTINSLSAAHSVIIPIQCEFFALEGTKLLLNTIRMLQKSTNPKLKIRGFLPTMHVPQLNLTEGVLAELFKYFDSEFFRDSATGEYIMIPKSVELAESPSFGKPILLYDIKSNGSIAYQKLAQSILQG
The experiment in a line: fluorescence polarization.

Data set [3] concerns the target T1, HpSoj. In words: fluorescence polarization.
The target of data set [4] is T3, HpSoj K199/227/230/247E (Helicobacter pylori 26695, UniProt O25759 1-264, K199E;K227E;K230E;K247E).
T3 sequence: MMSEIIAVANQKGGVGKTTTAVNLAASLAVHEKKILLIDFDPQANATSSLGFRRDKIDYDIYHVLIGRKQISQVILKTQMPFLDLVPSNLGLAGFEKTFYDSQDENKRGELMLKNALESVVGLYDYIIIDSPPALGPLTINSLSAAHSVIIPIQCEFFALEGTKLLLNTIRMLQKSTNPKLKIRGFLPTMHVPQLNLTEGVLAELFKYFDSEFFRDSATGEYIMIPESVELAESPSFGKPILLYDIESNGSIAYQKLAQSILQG
The experiment in a line: fluorescence polarization.

In data set [5] the target is T4, HpSoj K199E (Helicobacter pylori 26695, UniProt O25759 1-264, K199E).
T4 sequence: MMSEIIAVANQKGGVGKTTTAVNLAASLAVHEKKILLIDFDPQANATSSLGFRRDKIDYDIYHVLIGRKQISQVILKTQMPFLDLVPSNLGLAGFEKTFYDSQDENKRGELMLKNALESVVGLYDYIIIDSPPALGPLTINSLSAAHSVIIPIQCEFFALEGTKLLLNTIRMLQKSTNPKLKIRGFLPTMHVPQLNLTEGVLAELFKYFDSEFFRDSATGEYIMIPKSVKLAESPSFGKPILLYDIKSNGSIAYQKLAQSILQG
In words: fluorescence polarization.

Data set [6] concerns the target T5, HpSoj K230E (Helicobacter pylori 26695, UniProt O25759 1-264, K230E).
T5 sequence: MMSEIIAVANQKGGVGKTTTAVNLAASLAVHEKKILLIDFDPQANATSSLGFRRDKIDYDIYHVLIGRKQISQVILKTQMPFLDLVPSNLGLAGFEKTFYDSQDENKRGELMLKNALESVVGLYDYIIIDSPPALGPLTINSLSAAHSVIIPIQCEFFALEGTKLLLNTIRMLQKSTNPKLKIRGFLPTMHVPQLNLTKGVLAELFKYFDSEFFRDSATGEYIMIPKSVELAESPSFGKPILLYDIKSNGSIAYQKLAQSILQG
The experiment in a line: fluorescence polarization.

B1: parS55 (dsDNA)
DNA 1: CTGAATCAGCAGTTGAATCAGAATGTTCCACGTGAAACAAAGAAAAAAGAACCTG
DNA 2: CAGGTTCTTTTTTCTTTGTTTCACGTGGAACATTCTGATTCAACTGCTGATTCAG
As to B1, the binding result in data set [1] is “binds”.

B2: parS24 Cy3 (dsDNA)
DNA 1: AGGGTGTTCCACGTGAAACAGGGA
DNA 2: TCCCTGTTTCACGTGGAACACCCT
Regarding B2, the Kd in data set [2] was 308 ± 40 nM; in data set [3], 122 ± 14 nM; in data set [5] it was 215 ± 24 nM; in data set [6] it was 187 ± 36 nM. The binding result in data set [4] was “no binding”.
